The values that follow come from publication PMC3248800.

In the assay the target is αβ T cell receptor A6 (human). In words: SPR.

“Tel1p-HLA-A2 (A150P) complex (from UniProt P61769 21-119) (peptide-MHC)”: the dissociation constant (Kd) turned out to be 5 µM.

“Tel1p-HLA-A2 complex (S. cerevisiae Tel1p peptide … presented by wild-type HLA-A*0201) (from UniProt P61769 21-119) (peptide-MHC)” returned a Kd of 41 µM and a dH of -12.6 kJ/mol.

By Kd is commonly meant the concentration at which binding is half-saturated.
